# The Human Domainome abundance scans (Beltran et al. 2025)
# ± gives the uncertainty stated by the source.
# B1: Chromodomain-helicase-DNA-binding protein 7, residues 2564 to 2605; numbered along this chain, Q9P2D1 (parent)
# chain: DPDTRIPVINLEDGTRLVGEDAPKNKDLVEWLKLHPTYTVDM
# B2: Histone H1t, residues 44 to 112; numbered along this chain, P22492 (parent)
# chain: VSKLITEALSVSQERVGMSLVALKKALAAAGYDVEKNNSRIKLSLKSLVNKGILVQTRGTGASGSFKLS
# Variants of: B1
# Experiment: abundance fitness (aPCA) (normalised: wild type 0, dead -1); higher = more abundant; growth selection in yeast, the domain comes from the species named
# Details: Homo sapiens
row,Variant,abundance fitness
1,DPHTRIPVINLEDGTRLVGEDAPKNKDLVEWLKLHPTYTVDM [D3H],0.089 ± 0.087
2,DPITRIPVINLEDGTRLVGEDAPKNKDLVEWLKLHPTYTVDM [D3I],-0.54 ± 0.094
3,DPGTRIPVINLEDGTRLVGEDAPKNKDLVEWLKLHPTYTVDM [D3G],-0.384 ± 0.053
4,DPATRIPVINLEDGTRLVGEDAPKNKDLVEWLKLHPTYTVDM [D3A],-0.283 ± 0.052
5,DPFTRIPVINLEDGTRLVGEDAPKNKDLVEWLKLHPTYTVDM [D3F],-0.259 ± 0.11
6,DPETRIPVINLEDGTRLVGEDAPKNKDLVEWLKLHPTYTVDM [D3E],0.106 ± 0.057
7,DPLTRIPVINLEDGTRLVGEDAPKNKDLVEWLKLHPTYTVDM [D3L],-0.122 ± 0.052
8,DPCTRIPVINLEDGTRLVGEDAPKNKDLVEWLKLHPTYTVDM [D3C],-0.749 ± 0.22
9,DIDTRIPVINLEDGTRLVGEDAPKNKDLVEWLKLHPTYTVDM [P2I],-0.078 ± 0.1
10,DHDTRIPVINLEDGTRLVGEDAPKNKDLVEWLKLHPTYTVDM [P2H],-0.737 ± 0.18
11,DLDTRIPVINLEDGTRLVGEDAPKNKDLVEWLKLHPTYTVDM [P2L],-0.179 ± 0.06
12,DDDTRIPVINLEDGTRLVGEDAPKNKDLVEWLKLHPTYTVDM [P2D],-0.301 ± 0.19
13,DTDTRIPVINLEDGTRLVGEDAPKNKDLVEWLKLHPTYTVDM [P2T],0.179 ± 0.072
14,DWDTRIPVINLEDGTRLVGEDAPKNKDLVEWLKLHPTYTVDM [P2W],-0.02 ± 0.06
15,DADTRIPVINLEDGTRLVGEDAPKNKDLVEWLKLHPTYTVDM [P2A],-0.031 ± 0.059
16,DCDTRIPVINLEDGTRLVGEDAPKNKDLVEWLKLHPTYTVDM [P2C],0.148 ± 0.07

row,Variant,abundance fitness
1,DFDTRIPVINLEDGTRLVGEDAPKNKDLVEWLKLHPTYTVDM [P2F],-0.513 ± 0.24
2,DQDTRIPVINLEDGTRLVGEDAPKNKDLVEWLKLHPTYTVDM [P2Q],0.182 ± 0.059
3,DRDTRIPVINLEDGTRLVGEDAPKNKDLVEWLKLHPTYTVDM [P2R],0.161 ± 0.071
4,DSDTRIPVINLEDGTRLVGEDAPKNKDLVEWLKLHPTYTVDM [P2S],0.017 ± 0.062
5,DGDTRIPVINLEDGTRLVGEDAPKNKDLVEWLKLHPTYTVDM [P2G],-0.074 ± 0.066
6,RPDTRIPVINLEDGTRLVGEDAPKNKDLVEWLKLHPTYTVDM [D1R],-1 ± 0.11
7,SPDTRIPVINLEDGTRLVGEDAPKNKDLVEWLKLHPTYTVDM [D1S],-0.237 ± 0.081
8,LPDTRIPVINLEDGTRLVGEDAPKNKDLVEWLKLHPTYTVDM [D1L],-0.43 ± 0.062
9,YPDTRIPVINLEDGTRLVGEDAPKNKDLVEWLKLHPTYTVDM [D1Y],-0.298 ± 0.12
10,VPDTRIPVINLEDGTRLVGEDAPKNKDLVEWLKLHPTYTVDM [D1V],-0.184 ± 0.063
11,GPDTRIPVINLEDGTRLVGEDAPKNKDLVEWLKLHPTYTVDM [D1G],-0.901 ± 0.1
12,CPDTRIPVINLEDGTRLVGEDAPKNKDLVEWLKLHPTYTVDM [D1C],-0.283 ± 0.1
13,APDTRIPVINLEDGTRLVGEDAPKNKDLVEWLKLHPTYTVDM [D1A],-0.69 ± 0.093
14,FPDTRIPVINLEDGTRLVGEDAPKNKDLVEWLKLHPTYTVDM [D1F],0.073 ± 0.29
15,EPDTRIPVINLEDGTRLVGEDAPKNKDLVEWLKLHPTYTVDM [D1E],-1.19 ± 0.23

# Variants of: B2
# Experiment: as above
# Details: Homo sapiens
row,Variant,abundance fitness
1,VSKLITEALSVSQERVGMSLVALKKALAAAGYDVEKNNSRIKLSLKSLVNKGILVQTRGTGASGSFYLS [K67Y],-0.181 ± 0.061
2,VSKLITEALSVSQERVGMSLVALKKALAAAGYDVEKNNSRIKLSLKSLVNKGILVQTRGTGASGSFCLS [K67C],-0.096 ± 0.061
3,VSKLITEALSVSQERVGMSLVALKKALAAAGYDVEKNNSRIKLSLKSLVNKGILVQTRGTGASGSFQLS [K67Q],-0.092 ± 0.051
4,VSKLITEALSVSQERVGMSLVALKKALAAAGYDVEKNNSRIKLSLKSLVNKGILVQTRGTGASGSFFLS [K67F],0.06 ± 0.059
5,VSKLITEALSVSQERVGMSLVALKKALAAAGYDVEKNNSRIKLSLKSLVNKGILVQTRGTGASGSFMLS [K67M],-0.066 ± 0.041
6,VSKLITEALSVSQERVGMSLVALKKALAAAGYDVEKNNSRIKLSLKSLVNKGILVQTRGTGASGSFWLS [K67W],-0.246 ± 0.051
7,VSKLITEALSVSQERVGMSLVALKKALAAAGYDVEKNNSRIKLSLKSLVNKGILVQTRGTGASGSFALS [K67A],-0.028 ± 0.037
8,VSKLITEALSVSQERVGMSLVALKKALAAAGYDVEKNNSRIKLSLKSLVNKGILVQTRGTGASGSFSLS [K67S],0.024 ± 0.038
9,VSKLITEALSVSQERVGMSLVALKKALAAAGYDVEKNNSRIKLSLKSLVNKGILVQTRGTGASGSFLLS [K67L],-0.158 ± 0.037
10,VSKLITEALSVSQERVGMSLVALKKALAAAGYDVEKNNSRIKLSLKSLVNKGILVQTRGTGASGSFVLS [K67V],-0.109 ± 0.038
11,VSKLITEALSVSQERVGMSLVALKKALAAAGYDVEKNNSRIKLSLKSLVNKGILVQTRGTGASGSFTLS [K67T],-0.193 ± 0.04
12,VSKLITEALSVSQERVGMSLVALKKALAAAGYDVEKNNSRIKLSLKSLVNKGILVQTRGTGASGSFNLS [K67N],-0.091 ± 0.045
13,VSKLITEALSVSQERVGMSLVALKKALAAAGYDVEKNNSRIKLSLKSLVNKGILVQTRGTGASGSFPLS [K67P],-0.202 ± 0.054
